B1: CPEB3 Ribozyme (parent)
chain: UAACAGGGGGCCACAGCAGAAGCGUUCACGUCGCAGCCCCUGUCAGAUUCUGGUGAAUCUGCGAAUUCUGCUGUAUAUCUC

The source of these data is the RNAGym collection of RNA variant scans (doi:10.1093/nar/gkz1192).

In this series the parent is B1. The series is described as follows: self-cleavage, relative activity (ratio to wild type); higher = more cleavage; in vitro, sequencing. Summed up: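 For each CPEB3 ribozyme variant, relative activity is its cleaved/total read fraction divided by the unmutated ribozyme's. Barcoded error-prone PCR libraries were transcribed by T7 RNA polymerase (5 hours, 37°C) and held in DNase I for 15 min before an EDTA stop, with cleavage occurring throughout. Template-switching reverse transcription and Illumina sequencing were used to read the RNAs. A 5-read minimum applied, and results are the mean of three batches.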
Consider UAACAGGGGGCCGCAGCAGAAGCGUUCACGUCGCAGCCCCUGUCAGCUUCUGGUGAAUCUGCGAAUUCUGCUGUAUAUCUC [A13G A47C], for which the self-cleavage was 0.57.

Turning to UAACAGGGGGCCGCAGCAGAAGCGUUCACGUCGCAGCCCCUGUCAGUUUCUGGUGAAUCUGCGAAUUCUGCUGUAUAUCUC [A13G A47U], the self-cleavage stood at 0.38.

For UAACAGGGGGCCGCAGCAGAAGCGUUCACGUCGCAGCCCGUGUCAGAUUCUGGUGAAUCUGCGAAUUCUGCUGUAUAUCUC [A13G C40G], the self-cleavage is 0.23. With UAACAGGGGGCCGCAGCAGAAGCGUUCACGUCGCAGCCCAUGUCAGAUUCUGGUGAAUCUGCGAAUUCUGCUGUAUAUCUC [A13G C40A] the figure was 0.21; with UAACAGGGGGCCGCAGCAGAAGCGUUCACGUCGCAGCCCUUGUCAGAUUCUGGUGAAUCUGCGAAUUCUGCUGUAUAUCUC [A13G C40U], 0.76. UAACAGGGGGCCGCAGCAGAAGCGUUCACGUCGCAGCCGCUGUCAGAUUCUGGUGAAUCUGCGAAUUCUGCUGUAUAUCUC [A13G C39G]: the self-cleavage was determined as 0.27. With UAACAGGGGGCCGCAGCAGAAGCGUUCACGUCGCAGCCUCUGUCAGAUUCUGGUGAAUCUGCGAAUUCUGCUGUAUAUCUC [A13G C39U] the figure was 1; with UAACAGGGGGCCGCAGCAGAAGCGUUCACGUCGCAGCCACUGUCAGAUUCUGGUGAAUCUGCGAAUUCUGCUGUAUAUCUC [A13G C39A], 0.28. To UAACAGGGGGCCGCAGCAGAAGCGUUCACGUCGCAGCCCCUGUCAGAUUCUGGUGGAUCUGCGAAUUCUGCUGUAUAUCUC [A13G A56G] belongs 0.73; to UAACAGGGGGCCGCAGCAGAAGCGUUCACGUCGCAGCCCCUGUCAGAUUCUGGUGUAUCUGCGAAUUCUGCUGUAUAUCUC [A13G A56U], 0.42; to UAACAGGGGGCCGCAGCAGAAGCGUUCACGUCGCAGCCCCUGUCAGAUUCUGGUGAAUCUGCGCAUUCUGCUGUAUAUCUC [A13G A64C], 0.46. To UAACAGGGGGCCGCAGCAGAAGCGUUCACGUCGCAGCCCCUGUCAGAUUCUGGUGAAUCUGCGUAUUCUGCUGUAUAUCUC [A13G A64U] belongs 0.32; to UAACAGGGGGCCGCAGCAGAAGCGUUCACGUCGCAGCCCCUGUCAGAUUCUGGUGAAUCUGCGGAUUCUGCUGUAUAUCUC [A13G A64G], 0.76; to UAACAGGGGGCCGCAGCAGAAGCGUUUACGUCGCAGCCCCUGUCAGAUUCUGGUGAAUCUGCGAAUUCUGCUGUAUAUCUC [A13G C27U], 0.26. As to UAACAGGGGGCCGCAGUAGAAGCGUUCACGUCGCAGCCCCUGUCAGAUUCUGGUGAAUCUGCGAAUUCUGCUGUAUAUCUC [A13G C17U], the self-cleavage was found to be 0.51. As for UAACAGGGGGCCGCAGGAGAAGCGUUCACGUCGCAGCCCCUGUCAGAUUCUGGUGAAUCUGCGAAUUCUGCUGUAUAUCUC [A13G C17G], the self-cleavage was 0.13. As to UAACAGGGGGCCGCAGAAGAAGCGUUCACGUCGCAGCCCCUGUCAGAUUCUGGUGAAUCUGCGAAUUCUGCUGUAUAUCUC [A13G C17A], the self-cleavage was determined as 0.38.

Take UAACAGGGGGCCGCAGCAGAUGCGUUCACGUCGCAGCCCCUGUCAGAUUCUGGUGAAUCUGCGAAUUCUGCUGUAUAUCUC [A13G A21U]: the self-cleavage turned out to be 0.35.

On to UAACAGGGGGCCGCAGCAGAGGCGUUCACGUCGCAGCCCCUGUCAGAUUCUGGUGAAUCUGCGAAUUCUGCUGUAUAUCUC [A13G A21G], for which the self-cleavage was 0.5. As for UAACAGGGGGCCGCAGCAGAAGCGUUCACGUUGCAGCCCCUGUCAGAUUCUGGUGAAUCUGCGAAUUCUGCUGUAUAUCUC [A13G C32U], the self-cleavage worked out at 0.18.

Consider UAACAGGGGGCCGCAGCAGAAGCGUUCACGUAGCAGCCCCUGUCAGAUUCUGGUGAAUCUGCGAAUUCUGCUGUAUAUCUC [A13G C32A], for which the self-cleavage worked out at 0.16.

With UAACAGGGGGCCGCAGCAGAAGCGUUCACGUCGCAGCCCCUGUCAGAUUGUGGUGAAUCUGCGAAUUCUGCUGUAUAUCUC [A13G C50G], the self-cleavage was found to be 0.81. With UAACAGGGGGCCGCAGCAGAAGCGUUCACGUCGCAGCCCCUGUCAGAUUAUGGUGAAUCUGCGAAUUCUGCUGUAUAUCUC [A13G C50A] the figure was 0.76.

Consider UAACAGGGGGCCGCAGCAGAAGCGUUCACGUCGCAGCCCCUGUAAGAUUCUGGUGAAUCUGCGAAUUCUGCUGUAUAUCUC [A13G C44A], for which the self-cleavage amounted to 0.24.

For the variant UAACAGGGGGCCGCAGCAGAAGCGUUCACGUCGCAGCCCCUGUUAGAUUCUGGUGAAUCUGCGAAUUCUGCUGUAUAUCUC [A13G C44U], the self-cleavage came out at 0.32. In the case of UAACAGGGGGCCGCAGCAGGAGCGUUCACGUCGCAGCCCCUGUCAGAUUCUGGUGAAUCUGCGAAUUCUGCUGUAUAUCUC [A13G A20G], the self-cleavage came out at 0.6. On to UAACAGGGGGCCGCAGCAGUAGCGUUCACGUCGCAGCCCCUGUCAGAUUCUGGUGAAUCUGCGAAUUCUGCUGUAUAUCUC [A13G A20U], for which the self-cleavage stood at 0.28. Take UAACAGGGGGCCGCAGCAGCAGCGUUCACGUCGCAGCCCCUGUCAGAUUCUGGUGAAUCUGCGAAUUCUGCUGUAUAUCUC [A13G A20C]: the self-cleavage amounted to 0.27. With UAACAGGGGGCCGCAGCAGAAGCGUUCACGUCGCCGCCCCUGUCAGAUUCUGGUGAAUCUGCGAAUUCUGCUGUAUAUCUC [A13G A35C] the figure was 0.56; with UAACAGGGGGCCGCAGCAGAAGCGUUCACGUCGCGGCCCCUGUCAGAUUCUGGUGAAUCUGCGAAUUCUGCUGUAUAUCUC [A13G A35G], 0.92. To UAACAGGGGGCCGCAGCAGAAGCGUUCACGUCGCUGCCCCUGUCAGAUUCUGGUGAAUCUGCGAAUUCUGCUGUAUAUCUC [A13G A35U] belongs 0.48.

For UAACAGGGGGCCGCAGCAGAAGCGUUCACGUCGCAGCCCCUGUCAGAUUCUGGUGAAUCUGCGAGUUCUGCUGUAUAUCUC [A13G A65G], the self-cleavage came to 0.41. With UAACAGGGGGCCGCAGCAGAAGCGUUCACGUCGCAGCCCCUGUCAGAUUCUGGUGAAUCUGCGAUUUCUGCUGUAUAUCUC [A13G A65U] the figure was 0.31. To UAACAGGGGGCCGCAGCAGAAGCGUUCACGUCGCAGCCCCUGUCAGAUUCUGGUGAAUCUGCGACUUCUGCUGUAUAUCUC [A13G A65C] belongs 0.56.
